Patent publication US20100249029A1 (Novo Nordisk, published 2010)
One block for each binder: values may come before it.

Assays:
[1] = target: T1, PRLR stably expressed on Ba/F3 cells (Ba/F3-PRLR) (UniProt P16471 25-622, limits assumed); assay: cell-based or functional assay
T1 sequence (looked up): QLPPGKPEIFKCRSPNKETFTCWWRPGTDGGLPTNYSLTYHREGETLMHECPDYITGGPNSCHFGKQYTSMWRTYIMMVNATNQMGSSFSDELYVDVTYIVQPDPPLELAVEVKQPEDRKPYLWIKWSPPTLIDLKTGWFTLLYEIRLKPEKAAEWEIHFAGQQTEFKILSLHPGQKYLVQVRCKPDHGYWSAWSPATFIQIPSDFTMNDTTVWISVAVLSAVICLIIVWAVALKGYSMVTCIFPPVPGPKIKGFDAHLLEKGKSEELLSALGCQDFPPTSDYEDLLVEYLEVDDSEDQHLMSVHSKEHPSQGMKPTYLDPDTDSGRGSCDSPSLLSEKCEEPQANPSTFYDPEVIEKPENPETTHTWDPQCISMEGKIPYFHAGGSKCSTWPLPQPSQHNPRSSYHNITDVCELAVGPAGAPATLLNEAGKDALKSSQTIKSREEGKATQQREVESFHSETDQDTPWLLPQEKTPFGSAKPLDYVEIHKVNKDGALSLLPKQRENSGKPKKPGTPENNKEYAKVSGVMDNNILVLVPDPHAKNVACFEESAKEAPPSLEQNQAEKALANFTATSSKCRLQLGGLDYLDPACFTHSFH

[2] = target: T2, Biotinylated prolactin receptor BirATag-Ser-PRLR (1-210) (human, UniProt P16471 25-234, biotinylated (BirA tag, biotin added during expression in E. coli)); assay: SPR (Biacore); biotinylated BirATag-Ser-PRLR (1-210) amine-coupled to CM5 chip, control injected at 3.13-50 nM; STDEV 1.63; one value under a double label
T2 construct: range 1-210; also called BirA-Ser-PRLR (1-210); not shown: BirA tag (biotin acceptor tag)
T2 sequence: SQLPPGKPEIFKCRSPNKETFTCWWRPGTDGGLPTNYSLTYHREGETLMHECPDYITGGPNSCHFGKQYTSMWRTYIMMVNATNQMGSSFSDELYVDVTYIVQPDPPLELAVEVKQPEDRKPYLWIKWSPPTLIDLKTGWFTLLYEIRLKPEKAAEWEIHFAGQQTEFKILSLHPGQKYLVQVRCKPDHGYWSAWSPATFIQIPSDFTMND
Method: (§1) Biotinylated prolactin receptor BirATag-Ser-PRLR (1-210) was diluted to 20 μg/ml in 10 mM sodium acetate pH 4.0 (Biacore BR-1003-49) and immobilized on a CM5 chip (Biacore BR-1006-68) with the immobilization reagents 1-ethyl-3-(3-dimethylaminopropyl) carbodiimide hydrochloride (EDC), N-hydroxysuccinimide (NHS) and 1.0 M ethanolamine-HCl pH 8.5 (Biacore BR1000-50). The immobilization level was 1500 RU. The PRL variants prepared as described in Example 5 were diluted to a series of concentrations as following: 3.13/6.25/12.5/25/50 nM and run through the PRLR immobilized chip using HBS-EP (10 mM HEPES pH 7.4; 150 mM NaCl; 3 mM EDTA; 0.005% v/v Tween-20) as the running buffer under the following conditions: […]

[3] = target: T1, PRLR stably expressed on Ba/F3 cells …; assay: cell-based or functional assay; remark: listed apart in the source
[4] = target: T2, Biotinylated prolactin receptor …; assay: SPR (Biacore); BirATag-Ser-PRLR (1-210) on CM5 chip, analogue injected at 1.6-25 nM (FIG. 5)
Method: as §1, with “on the” for “on a”, “PRL analogues” for “PRL variants prepared as described in Example 5”, “following: 1.6/3.13/6.25/12.5/25” for “following: 3.13/6.25/12.5/25/50”

[5] = target: T2, Biotinylated prolactin receptor …; assay: Biacore SPR, BirATag-Ser-PRLR (1-210) immobilised on a CM5 chip, PRL analogues 1.6-25 nM
Method: as §1, with “on the” for “on a”, “PRL analogues” for “PRL variants prepared as described in Example 5”, “following: 1.6/3.13/6.25/12.5/25” for “following: 3.13/6.25/12.5/25/50”

[6] = target: T2, Biotinylated prolactin receptor …; assay: SPR (Biacore); biotinylated BirATag-Ser-PRLR (1-210) amine-coupled to CM5 chip, variant injected at 3.13-50 nM; STDEV 0.17
Method: as §1

[7] = target: T2, Biotinylated prolactin receptor …; assay: SPR (Biacore); biotinylated BirATag-Ser-PRLR (1-210) amine-coupled to CM5 chip, variant injected at 3.13-50 nM; STDEV 0.29
Method: as §1

[8] = target: T2, Biotinylated prolactin receptor …; assay: SPR (Biacore); biotinylated BirATag-Ser-PRLR (1-210) amine-coupled to CM5 chip, variant injected at 3.13-50 nM; STDEV 0.042
Method: as §1

[9] = target: T2, Biotinylated prolactin receptor …; assay: SPR (Biacore); biotinylated BirATag-Ser-PRLR (1-210) amine-coupled to CM5 chip, variant injected at 3.13-50 nM; STDEV 0.28
Method: as §1

B1: wild type human prolactin (ligand)
chain: LPICPGGAARCQVTLRDLFDRAVVLSHYIHNLSSEMFSEFDKRYTHGRGFITKAINSCHTSSLATPEDKEQAQQMNQKDFLSLIVSILRSWNEPLYHLVTEVRGMQEAPEAILSKAVEIEEQTKRLLEGMELIVSQVHPETKENEIYPVWSGLPSLQMADEESRLSAYYNLLHCLRRDSHKIDNYLKLLKCRIIHNNNC
EC50, Ba/F3-PRLR proliferation assay [1]: 0.102 nM
EC50, stimulation (proliferation) assay, Ba/F3-PRLR cell line PRLR-09 [1]: 0.054 nM
EC50, stimulation (proliferation) assay, Ba/F3-PRLR cell line PRLR-32 [1]: 0.0375 nM

B2: PRL G129R (ligand)
chain: LPICPGGAARCQVTLRDLFDRAVVLSHYIHNLSSEMFSEFDKRYTHGRGFITKAINSCHTSSLATPEDKEQAQQMNQKDFLSLIVSILRSWNEPLYHLVTEVRGMQEAPEAILSKAVEIEEQTKRLLERMELIVSQVHPETKENEIYPVWSGLPSLQMADEESRLSAYYNLLHCLRRDSHKIDNYLKLLKCRIIHNNNC
notes: also called [2H,15N]PRL-G129R; [2H,13C,15N]PRL-G129R
EC50, Ba/F3-PRLR proliferation assay [1]: 3.2 nM
highest proliferation rate relative to wtPRL, Ba/F3-PRLR proliferation assay [1]: 12 % of wtPRL
Kd [2]: 13.9 nM
EC50 (so in the source); inhibition of proliferation of Ba/F3-PRLR cells stimulated with 1 nM wtPRL, OD490nM [3]: 64.6 nM
LOGEC50 (same fit) [3]: -7.19 LogM

B5: [PRL Q73L, M75T, N76S, F80L, G129R] (ligand)
chain: LPICPGGAARCQVTLRDLFDRAVVLSHYIHNLSSEMFSEFDKRYTHGRGFITKAINSCHTSSLATPEDKEQALQTSQKDLLSLIVSILRSWNEPLYHLVTEVRGMQEAPEAILSKAVEIEEQTKRLLERMELIVSQVHPETKENEIYPVWSGLPSLQMADEESRLSAYYNLLHCLRRDSHKIDNYLKLLKCRIIHNNNC
notes: also called HTPN-62
antagonist activity relative to [PRL G129R], Ba/F3-PRLR competition assay against 1 nM wtPRL [1]: ~4 fold
EC50 (so in the source); inhibition of proliferation of Ba/F3-PRLR cells stimulated with 1 nM wtPRL, OD490nM [3]: 13.8 nM
LOGEC50 (same fit) [3]: -7.86 LogM
fold higher affinity than wt PRL and [PRL G129R] [4]: ~2 fold

B6: Ser-PRL Q73L, G129R, K190R (ligand)
chain: SLPICPGGAARCQVTLRDLFDRAVVLSHYIHNLSSEMFSEFDKRYTHGRGFITKAINSCHTSSLATPEDKEQALQMNQKDFLSLIVSILRSWNEPLYHLVTEVRGMQEAPEAILSKAVEIEEQTKRLLERMELIVSQVHPETKENEIYPVWSGLPSLQMADEESRLSAYYNLLHCLRRDSHKIDNYLKLLRCRIIHNNNC
Kd [6]: 2.6 nM

B9: Ser-PRL G129R (ligand)
chain: SLPICPGGAARCQVTLRDLFDRAVVLSHYIHNLSSEMFSEFDKRYTHGRGFITKAINSCHTSSLATPEDKEQAQQMNQKDFLSLIVSILRSWNEPLYHLVTEVRGMQEAPEAILSKAVEIEEQTKRLLERMELIVSQVHPETKENEIYPVWSGLPSLQMADEESRLSAYYNLLHCLRRDSHKIDNYLKLLKCRIIHNNNC
notes: The control row gives one KD under the double label 'PRL G129R/Ser-PRL G129R'
Kd [2]: 13.9 nM

Now from value to binder:

fold higher affinity than wt PRL and [PRL G129R] [4]: ~2 fold
B3: [PRL S33A, Q73L, G129R, K190R] (ligand)
chain: LPICPGGAARCQVTLRDLFDRAVVLSHYIHNLASEMFSEFDKRYTHGRGFITKAINSCHTSSLATPEDKEQALQMNQKDFLSLIVSILRSWNEPLYHLVTEVRGMQEAPEAILSKAVEIEEQTKRLLERMELIVSQVHPETKENEIYPVWSGLPSLQMADEESRLSAYYNLLHCLRRDSHKIDNYLKLLRCRIIHNNNC

binding result [5]: binds
B4: PRL S61A, Q71A, Q73A, G129R (ligand)
prolactin variant: LPICPGGAARCQVTLRDLFDRAVVLSHYIHNLSSEMFSEFDKRYTHGRGFITKAINSCHTASLATPEDKEAAAQMNQKDFLSLIVSILRSWNEPLYHLVTEVRGMQEAPEAILSKAVEIEEQTKRLLERMELIVSQVHPETKENEIYPVWSGLPSLQMADEESRLSAYYNLLHCLRRDSHKIDNYLKLLKCRIIHNNNC
notes: It is not in the first reading's list; also called rational designed mutant

Kd [7]: 3.1 nM
B7: Ser-PRL S38I, D68N, G129R, S179T, I182V (ligand)
chain: SLPICPGGAARCQVTLRDLFDRAVVLSHYIHNLSSEMFIEFDKRYTHGRGFITKAINSCHTSSLATPENKEQAQQMNQKDFLSLIVSILRSWNEPLYHLVTEVRGMQEAPEAILSKAVEIEEQTKRLLERMELIVSQVHPETKENEIYPVWSGLPSLQMADEESRLSAYYNLLHCLRRDTHKVDNYLKLLKCRIIHNNNC

Kd [6]: 3.1 nM
B8: Ser-PRL S33D, Q73L, M75T, N76S, F80L, G129R, K190R (ligand)
chain: SLPICPGGAARCQVTLRDLFDRAVVLSHYIHNLDSEMFSEFDKRYTHGRGFITKAINSCHTSSLATPEDKEQALQTSQKDLLSLIVSILRSWNEPLYHLVTEVRGMQEAPEAILSKAVEIEEQTKRLLERMELIVSQVHPETKENEIYPVWSGLPSLQMADEESRLSAYYNLLHCLRRDSHKIDNYLKLLRCRIIHNNNC

Kd [8]: 3.2 nM
B10: Ser-PRL G129R, K190R, I194V, H195Y, N196R, N197D (ligand)
chain: SLPICPGGAARCQVTLRDLFDRAVVLSHYIHNLSSEMFSEFDKRYTHGRGFITKAINSCHTSSLATPEDKEQAQQMNQKDFLSLIVSILRSWNEPLYHLVTEVRGMQEAPEAILSKAVEIEEQTKRLLERMELIVSQVHPETKENEIYPVWSGLPSLQMADEESRLSAYYNLLHCLRRDSHKIDNYLKLLRCRIVYRDNC

Kd [9]: 3.6 nM
B11: Ser-PRL Q73L M75T N76S F80L G129R (ligand)
chain: SLPICPGGAARCQVTLRDLFDRAVVLSHYIHNLSSEMFSEFDKRYTHGRGFITKAINSCHTSSLATPEDKEQALQTSQKDLLSLIVSILRSWNEPLYHLVTEVRGMQEAPEAILSKAVEIEEQTKRLLERMELIVSQVHPETKENEIYPVWSGLPSLQMADEESRLSAYYNLLHCLRRDSHKIDNYLKLLKCRIIHNNNC
